Measured values: the supplement of paper PMC9732359
± gives the uncertainty stated by the source.

Assay: protein stability index of a GFP-peptide fusion (yeast GPS) (PSI 1-4); higher = more stable; sorted into four equal gates, so the index is relative within each strain
Conditions: san1∆
Procedure, shortened: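 Plasmids in a pooled yeast library fused tiled 17-residue yeast protein peptides downstream of GFP and also expressed Cherry. Mid-log cultures grown without leucine were sorted into four equal gates by GFP/Cherry fluorescence ratio. Each gate's plasmids were PCR-amplified and Illumina-sequenced, and reads were matched to strains by barcodes. The protein stability index is derived by multiplying each gate's read frequency by its gate number and summing the results.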

Row | Sequence | protein stability index
1 | KLKHMVLDKMHARARGP [RET1] | 2.47 ± 0.067
2 | KLLFDHDELDMNECIAD [ESC2] | 1.03 ± 0.22

Same assay, conditions: ubr1∆

Row | Sequence | protein stability index
3 | IYDFITLFSSIEPQVIN [ECM29] | 2.08 ± 0.039
4 | IYDSEDPQQVFDERIKF [RPN3] | 2.89 ± 0.06
5 | IYHGNHDVGELFWKVKE [PRE2] | 2.45 ± 0.049
6 | IYSVEKKISRLPKFLTV [UBP6] | 2.46 ± 0.035
7 | KAAFIRVNGSEFVHKYL [RPT3] | 2.77 ± 0.08
8 | KADIGKPGRMPFNFTVT [CDC53] | 2.89 ± 0.05
9 | KAEKAEIRKRRASSLKA [RPS6A] | 3.06 ± 0.13
10 | KAERVEDQKVVDKALIA [RPL6A] | 3.5 ± 0.05
11 | KAFTNWNKRDFMAFINA [ISW2] | 1.16 ± 0.062
12 | KAGVEAISQSLRDESLT [PRE5] | 3.07 ± 0.067
13 | KAIFQFVCRGMAATQTI [ECM29] | 1.48 ± 0.049
14 | KAKTTKKVVLRLECVKC [RPL42A] | 1.81 ± 0.065
15 | KAKYNTPKYRLVVRFTN [RPL5] | 1.12 ± 0.068
16 | KALDNACGAFININEFA [CDC53] | 2.82 ± 0.15
17 | KALQSIGQLIGEVMKEL [RPT4] | 3.36 ± 0.058
18 | KAMDIPIGRHEELLAQY [SWP82] | 2 ± 0.029
19 | KAPLEDDDKKPDDDKIV [RPT1] | 3.26 ± 0.067
20 | KASRKSVGLPSKVASSL [ECM29] | 2.84 ± 0.052
21 | KCGSVTVRLIPAPRGSG [RPS2] | 1.99 ± 0.1
22 | KCGVISPRFNVKIGDIE [RPS22A] | 3.43 ± 0.079
23 | KDDMKVDDAIELALKTL [PRE9] | 3.65 ± 0.09
24 | KDEEIEKLLQQDREITN [MED8] | 3.59 ± 0.14
25 | KDEETTEKARLIDFEYV [RRI2] | 3.13 ± 0.11
26 | KDGEIMLWNLAAKKAMY [ASC1] | 1.76 ± 0.097

Row | Sequence | protein stability index
27 | KDIFRYMQRTVEEAHDF [RPB2] | 1.3 ± 0.045
28 | KDLQENLLVLRGKNEII [RPO21] | 1.58 ± 0.071
29 | KDNAIYNGFIDIFSNLS [YCS4] | 2.77 ± 0.047
30 | KDPDVPLVLLQQIPLLC [POP3] | 2.47 ± 0.052
31 | KDQIQAGKWFDPVLDWR [SIR4] | 3.22 ± 0.07
32 | KDRYINGDKKVDIYSLP [YMR129W/POM152] | 3.23 ± 0.069
33 | KDTIVKEAEDKTLVALE [RPC37] | 3.18 ± 0.097
34 | KEDEPVVARRSNSANVS [ITC1] | 2.4 ± 0.05
35 | KEDTVSWFKQKYDADVL [RPL11A] | 1.53 ± 0.06
36 | KEENDEGLSAQIAFDLV [RPN2] | 3.33 ± 0.055
37 | KEFKGIKVTVQLKIQNR [RPL12A] | 2.4 ± 0.09
38 | KEGASTNWDDHAIIIFG [YMR153W/NUP53] | 2.59 ± 0.059
39 | KEISTRVFNAKDTTGPK [YCS4] | 2.99 ± 0.089
40 | KELMLQSKKLIEEKLSS [YIL149C/MLP2] | 3.05 ± 0.07
41 | KENKKRKNFKMGPLYQN [IRR1] | 2.13 ± 0.059
42 | KENLSKSSWRQEWLANL [SIR4] | 2.55 ± 0.026
43 | KEPRLVIVTDPRLDAQA [RPS0B] | 2.61 ± 0.16
44 | KERYTVEDELTESIALS [RRI1] | 3.23 ± 0.058
45 | KESEISHNENKMDFSSK [YIL149C/MLP2] | 3.19 ± 0.24
46 | KESWDPNTTKTKLRAFV [YGR119C/NUP57] | 2.77 ± 0.1
47 | KEVASLPNKSTISKTVS [FAS2] | 3.21 ± 0.14
48 | KFHSELQYLDKHIKNLE [RPN12] | 3.15 ± 0.072
49 | KFILSGFIFTSMILEAI [RRI2] | 1.11 ± 0.048
50 | KFLREVFVDGEANWPLP [RPO21] | 3.12 ± 0.074

Row | Sequence | protein stability index
51 | KFNNGVVIAADTRSTQG [PUP1] | 2.7 ± 0.095
52 | KFPDMGSLWVEFCDEPS [RPB5] | 2.96 ± 0.045
53 | KFQLKKVLCLAVAVGNV [RPL1A] | 1.15 ± 0.033
54 | KGGEQISQLYSDAVMAE [YJL041W/NSP1] | 2.33 ± 0.13
55 | KGPRFRKLTSQEINDRL [PRE8] | 3.58 ± 0.093
56 | KHAEFDLSLLGYCDDIA [SIR2] | 2.32 ± 0.063
57 | KHKKKHLKHENANDETT [RPB4] | 3.19 ± 0.074
58 | KHLEDNTLLVTGPFKVN [RPL6B] | 1.78 ± 0.072
59 | KHVGFELLSMGNAKESK [SRP72] | 3.24 ± 0.14
60 | KHWGGGILGNKAQAKMD [RPL8A] | 3.35 ± 0.087
61 | KIADLVRIPPDQFHRDT [RPC25] | 2.93 ± 0.088
62 | KIAERSLLLKNYLNDMH [SKP1] | 1.78 ± 0.067
63 | KIALREYINNCKKNTKK [POP4] | 2.89 ± 0.15
64 | KIAVLNNDKREIQEELE [SMC1] | 3.25 ± 0.047
65 | KIFIKDPKFVNSLLAKL [YML103C/NUP188] | 2.39 ± 0.068
66 | KIFTPNLLQISAAELER [SNF5] | 1.33 ± 0.066
67 | KIGPLGLSPKKVGEDIA [RPL12A] | 3.38 ± 0.24
68 | KIINKPNELSQILTVDP [RPC82] | 2.78 ± 0.09
69 | KILQKRSISKELIVSEE [SIR3] | 2.37 ± 0.052
70 | KIMNVTTDSLTKVLQAD [YMR129W/POM152] | 3.23 ± 0.064
71 | KIPLFTFAKSKNYSRPS [SIR4] | 2.42 ± 0.064
72 | KIQQHNTILNSSSDFRL [BRR2] | 2.78 ± 0.046
73 | KIREDHINKIPSNSTTT [SRB8] | 2.81 ± 0.034
74 | KIRELEAELSSTKVENS [YIL149C/MLP2] | 3.12 ± 0.064

Row | Sequence | protein stability index
75 | KIVYIAPLKALVQEQVR [BRR2] | 1.3 ± 0.051
76 | KKACIIFFDEIDAVGGA [RPT1] | 2.73 ± 0.038
77 | KKASKVTVDADIDDILK [ISW2] | 3.1 ± 0.046
78 | KKDRATGDADEPELRVL [RPO21] | 3.43 ± 0.046
79 | KKEANLFPEQQTKEIKT [RPL6B] | 3.23 ± 0.076
80 | KKEELVEIAYHKCDELI [RPO31] | 3.14 ± 0.093
81 | KKFIEISDVKIQVAAFI [PRP8] | 2.55 ± 0.042
82 | KKFVSQIQKNVDLLQFP [POP3] | 2.64 ± 0.053
83 | KKGEYARFKSKDERDTW [SMC3] | 3.32 ± 0.17
84 | KKGKSSDKDATTDGKND [RPN1] | 3.52 ± 0.2
85 | KKHTKKFKRHHSDRYHR [RPL32] | 2.971 ± 0.025
86 | KKMTKKAKRSNLYTPKA [PRP8] | 2.3 ± 0.031
87 | KKNNAASELANPYSSYV [YAR002W/NUP60] | 2.83 ± 0.054
88 | KKPGKIAKPNTANAKHT [SMB1] | 2.85 ± 0.066
89 | KKRNMPLQSIPEIGNRK [SWI1] | 2.63 ± 0.033
90 | KKRSKVRKETYSSYIYK [HTB2] | 3.38 ± 0.052
91 | KKVASANATAAESDVAK [RPL16A] | 3.02 ± 0.038
92 | KKVLEIDFFKTDDSFED [BRN1] | 2.18 ± 0.042
93 | KLAFGLTKLNEDDLVGV [TAF14] | 3 ± 0.057
94 | KLEEESKRGNDKKHFNN [RPC53] | 3.28 ± 0.08
95 | KLEGSENSEPPALESSP [SNF2] | 3.26 ± 0.057
96 | KLHHDLKLCLGDHSSVP [YMR129W/POM152] | 2.96 ± 0.042
97 | KLIEKKSAYANTEKDYK [SMC2] | 2.88 ± 0.045
98 | KLKHMVLDKMHARARGP [RET1] | 2.65 ± 0.06
